Starred links: 1 amine or outer side, 2 acyl side, 3 side chain; linkers in the order of their positions; H or OH if unused. Non-standard residues stand in square brackets, D forms with d. Groups on a side chain read outwards from the residue. No end group written: not given here. *: point of attachment. C20 diacid = O=C(O)CCCCCCCCCCCCCCCCCCC(=O)*; C18 diacid = O=C(O)CCCCCCCCCCCCCCCCC(=O)*; γGlu = O=C(O)[C@H](CCC(=O)[*:2])N[*:1]; εLys = N[C@@H](CCCCN[*:1])C(=O)[*:2]; AEEA = NCCOCCOCC(=O)O; Aib = CC(C)(N)C(=O)O
T1: human GIP receptor (human, UniProt P48546 22-466)
T1 sequence (looked up): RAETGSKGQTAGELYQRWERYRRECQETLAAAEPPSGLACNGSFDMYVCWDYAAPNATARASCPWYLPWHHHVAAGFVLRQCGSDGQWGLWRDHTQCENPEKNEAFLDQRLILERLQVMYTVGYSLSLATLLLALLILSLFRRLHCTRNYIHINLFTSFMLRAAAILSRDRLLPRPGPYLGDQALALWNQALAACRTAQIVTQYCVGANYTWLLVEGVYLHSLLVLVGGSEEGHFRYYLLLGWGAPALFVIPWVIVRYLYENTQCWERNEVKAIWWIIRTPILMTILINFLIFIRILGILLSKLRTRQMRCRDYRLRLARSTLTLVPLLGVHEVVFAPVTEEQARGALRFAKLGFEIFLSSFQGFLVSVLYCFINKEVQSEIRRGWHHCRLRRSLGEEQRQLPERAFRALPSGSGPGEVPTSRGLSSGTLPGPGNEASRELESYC

B1: Compound No. 12 (peptide)
peptide: Y[Aib]EGTFTSDYSIYLEK([εLys-εLys-γGlu-C18 diacid])QAAREFIEWLLRGGPSSGAPPPS-OH
modifications: N-terminus assumed
SMILES: CC[C@H](C)[C@H](NC(=O)[C@H](Cc1ccccc1)NC(=O)[C@H](CCC(=O)O)NC(=O)[C@H](CCCNC(=N)N)NC(=O)[C@H](C)NC(=O)[C@H](C)NC(=O)[C@H](CCC(N)=O)NC(=O)[C@H](CCCCNC(=O)[C@@H](N)CCCCNC(=O)[C@@H](N)CCCCNC(=O)CC[C@H](NC(=O)CCCCCCCCCCCCCCCCC(=O)O)C(=O)O)NC(=O)[C@H](CCC(=O)O)NC(=O)[C@H](CC(C)C)NC(=O)[C@H](Cc1ccc(O)cc1)NC(=O)[C@@H](NC(=O)[C@H](CO)NC(=O)[C@H](Cc1ccc(O)cc1)NC(=O)[C@H](CC(=O)O)NC(=O)[C@H](CO)NC(=O)[C@@H](NC(=O)[C@H](Cc1ccccc1)NC(=O)[C@@H](NC(=O)CNC(=O)[C@H](CCC(=O)O)NC(=O)C(C)(C)NC(=O)[C@@H](N)Cc1ccc(O)cc1)[C@@H](C)O)[C@@H](C)O)[C@@H](C)CC)C(=O)N[C@@H](CCC(=O)O)C(=O)N[C@@H](Cc1c[nH]c2ccccc12)C(=O)N[C@@H](CC(C)C)C(=O)N[C@@H](CC(C)C)C(=O)N[C@@H](CCCNC(=N)N)C(=O)NCC(=O)NCC(=O)N1CCC[C@H]1C(=O)N[C@@H](CO)C(=O)N[C@@H](CO)C(=O)NCC(=O)N[C@@H](C)C(=O)N1CCC[C@H]1C(=O)N1CCC[C@H]1C(=O)N1CCC[C@H]1C(=O)N[C@@H](CO)C(=O)O
B2: Compound No. 8 (peptide)
peptide: Y[Aib]EGTFTSDYSIYLEK([εLys-εLys-γGlu-C18 diacid])QAAREFINWLLAGGPSSGAPPPS-NH2
modifications: N-terminus assumed
SMILES: CC[C@H](C)[C@H](NC(=O)[C@H](Cc1ccccc1)NC(=O)[C@H](CCC(=O)O)NC(=O)[C@H](CCCNC(=N)N)NC(=O)[C@H](C)NC(=O)[C@H](C)NC(=O)[C@H](CCC(N)=O)NC(=O)[C@H](CCCCNC(=O)[C@@H](N)CCCCNC(=O)[C@@H](N)CCCCNC(=O)CC[C@H](NC(=O)CCCCCCCCCCCCCCCCC(=O)O)C(=O)O)NC(=O)[C@H](CCC(=O)O)NC(=O)[C@H](CC(C)C)NC(=O)[C@H](Cc1ccc(O)cc1)NC(=O)[C@@H](NC(=O)[C@H](CO)NC(=O)[C@H](Cc1ccc(O)cc1)NC(=O)[C@H](CC(=O)O)NC(=O)[C@H](CO)NC(=O)[C@@H](NC(=O)[C@H](Cc1ccccc1)NC(=O)[C@@H](NC(=O)CNC(=O)[C@H](CCC(=O)O)NC(=O)C(C)(C)NC(=O)[C@@H](N)Cc1ccc(O)cc1)[C@@H](C)O)[C@@H](C)O)[C@@H](C)CC)C(=O)N[C@@H](CC(N)=O)C(=O)N[C@@H](Cc1c[nH]c2ccccc12)C(=O)N[C@@H](CC(C)C)C(=O)N[C@@H](CC(C)C)C(=O)N[C@@H](C)C(=O)NCC(=O)NCC(=O)N1CCC[C@H]1C(=O)N[C@@H](CO)C(=O)N[C@@H](CO)C(=O)NCC(=O)N[C@@H](C)C(=O)N1CCC[C@H]1C(=O)N1CCC[C@H]1C(=O)N1CCC[C@H]1C(=O)N[C@@H](CO)C(N)=O
B3: Compound No. 11 (peptide)
peptide: Y[Aib]EGTFTSDYSIYLEK([εLys-εLys-γGlu-C18 diacid])QAAREFINWLLAGGPSSGAPPPS-OH
modifications: N-terminus assumed
SMILES: CC[C@H](C)[C@H](NC(=O)[C@H](Cc1ccccc1)NC(=O)[C@H](CCC(=O)O)NC(=O)[C@H](CCCNC(=N)N)NC(=O)[C@H](C)NC(=O)[C@H](C)NC(=O)[C@H](CCC(N)=O)NC(=O)[C@H](CCCCNC(=O)[C@@H](N)CCCCNC(=O)[C@@H](N)CCCCNC(=O)CC[C@H](NC(=O)CCCCCCCCCCCCCCCCC(=O)O)C(=O)O)NC(=O)[C@H](CCC(=O)O)NC(=O)[C@H](CC(C)C)NC(=O)[C@H](Cc1ccc(O)cc1)NC(=O)[C@@H](NC(=O)[C@H](CO)NC(=O)[C@H](Cc1ccc(O)cc1)NC(=O)[C@H](CC(=O)O)NC(=O)[C@H](CO)NC(=O)[C@@H](NC(=O)[C@H](Cc1ccccc1)NC(=O)[C@@H](NC(=O)CNC(=O)[C@H](CCC(=O)O)NC(=O)C(C)(C)NC(=O)[C@@H](N)Cc1ccc(O)cc1)[C@@H](C)O)[C@@H](C)O)[C@@H](C)CC)C(=O)N[C@@H](CC(N)=O)C(=O)N[C@@H](Cc1c[nH]c2ccccc12)C(=O)N[C@@H](CC(C)C)C(=O)N[C@@H](CC(C)C)C(=O)N[C@@H](C)C(=O)NCC(=O)NCC(=O)N1CCC[C@H]1C(=O)N[C@@H](CO)C(=O)N[C@@H](CO)C(=O)NCC(=O)N[C@@H](C)C(=O)N1CCC[C@H]1C(=O)N1CCC[C@H]1C(=O)N1CCC[C@H]1C(=O)N[C@@H](CO)C(=O)O
B4: Compound No. 1 (peptide)
peptide: Y[Aib]EGTFTSDYSIYLEK([εLys-εLys-γGlu-C20 diacid])QAAQEFVNWLLAGGPSSGAPPPS-NH2
modifications: N-terminus assumed
SMILES: CC[C@H](C)[C@H](NC(=O)[C@H](CO)NC(=O)[C@H](Cc1ccc(O)cc1)NC(=O)[C@H](CC(=O)O)NC(=O)[C@H](CO)NC(=O)[C@@H](NC(=O)[C@H](Cc1ccccc1)NC(=O)[C@@H](NC(=O)CNC(=O)[C@H](CCC(=O)O)NC(=O)C(C)(C)NC(=O)[C@@H](N)Cc1ccc(O)cc1)[C@@H](C)O)[C@@H](C)O)C(=O)N[C@@H](Cc1ccc(O)cc1)C(=O)N[C@@H](CC(C)C)C(=O)N[C@@H](CCC(=O)O)C(=O)N[C@@H](CCCCNC(=O)[C@@H](N)CCCCNC(=O)[C@@H](N)CCCCNC(=O)CC[C@H](NC(=O)CCCCCCCCCCCCCCCCCCC(=O)O)C(=O)O)C(=O)N[C@@H](CCC(N)=O)C(=O)N[C@@H](C)C(=O)N[C@@H](C)C(=O)N[C@@H](CCC(N)=O)C(=O)N[C@@H](CCC(=O)O)C(=O)N[C@@H](Cc1ccccc1)C(=O)N[C@H](C(=O)N[C@@H](CC(N)=O)C(=O)N[C@@H](Cc1c[nH]c2ccccc12)C(=O)N[C@@H](CC(C)C)C(=O)N[C@@H](CC(C)C)C(=O)N[C@@H](C)C(=O)NCC(=O)NCC(=O)N1CCC[C@H]1C(=O)N[C@@H](CO)C(=O)N[C@@H](CO)C(=O)NCC(=O)N[C@@H](C)C(=O)N1CCC[C@H]1C(=O)N1CCC[C@H]1C(=O)N1CCC[C@H]1C(=O)N[C@@H](CO)C(N)=O)C(C)C
B5: Compound No. 10 (peptide)
peptide: Y[Aib]EGTFTSDYSIYLEK([AEEA-AEEA-γGlu-C18 diacid])QAAREFIEWLLAGGPSSGAPPPS-OH
modifications: N-terminus assumed
SMILES: CC[C@H](C)[C@H](NC(=O)[C@H](Cc1ccccc1)NC(=O)[C@H](CCC(=O)O)NC(=O)[C@H](CCCNC(=N)N)NC(=O)[C@H](C)NC(=O)[C@H](C)NC(=O)[C@H](CCC(N)=O)NC(=O)[C@H](CCCCNC(=O)COCCOCCNC(=O)COCCOCCNC(=O)CC[C@H](NC(=O)CCCCCCCCCCCCCCCCC(=O)O)C(=O)O)NC(=O)[C@H](CCC(=O)O)NC(=O)[C@H](CC(C)C)NC(=O)[C@H](Cc1ccc(O)cc1)NC(=O)[C@@H](NC(=O)[C@H](CO)NC(=O)[C@H](Cc1ccc(O)cc1)NC(=O)[C@H](CC(=O)O)NC(=O)[C@H](CO)NC(=O)[C@@H](NC(=O)[C@H](Cc1ccccc1)NC(=O)[C@@H](NC(=O)CNC(=O)[C@H](CCC(=O)O)NC(=O)C(C)(C)NC(=O)[C@@H](N)Cc1ccc(O)cc1)[C@@H](C)O)[C@@H](C)O)[C@@H](C)CC)C(=O)N[C@@H](CCC(=O)O)C(=O)N[C@@H](Cc1c[nH]c2ccccc12)C(=O)N[C@@H](CC(C)C)C(=O)N[C@@H](CC(C)C)C(=O)N[C@@H](C)C(=O)NCC(=O)NCC(=O)N1CCC[C@H]1C(=O)N[C@@H](CO)C(=O)N[C@@H](CO)C(=O)NCC(=O)N[C@@H](C)C(=O)N1CCC[C@H]1C(=O)N1CCC[C@H]1C(=O)N1CCC[C@H]1C(=O)N[C@@H](CO)C(=O)O
B6: Compound No. 37 (peptide)
peptide: Y[Aib]EGTFTSDYSIYLEEQAARK([εLys-εLys-γGlu-C18 diacid])FINWLLAGGPSSGAPPPS-OH
modifications: N-terminus assumed
SMILES: CC[C@H](C)[C@H](NC(=O)[C@H](Cc1ccccc1)NC(=O)[C@H](CCCCNC(=O)[C@@H](N)CCCCNC(=O)[C@@H](N)CCCCNC(=O)CC[C@H](NC(=O)CCCCCCCCCCCCCCCCC(=O)O)C(=O)O)NC(=O)[C@H](CCCNC(=N)N)NC(=O)[C@H](C)NC(=O)[C@H](C)NC(=O)[C@H](CCC(N)=O)NC(=O)[C@H](CCC(=O)O)NC(=O)[C@H](CCC(=O)O)NC(=O)[C@H](CC(C)C)NC(=O)[C@H](Cc1ccc(O)cc1)NC(=O)[C@@H](NC(=O)[C@H](CO)NC(=O)[C@H](Cc1ccc(O)cc1)NC(=O)[C@H](CC(=O)O)NC(=O)[C@H](CO)NC(=O)[C@@H](NC(=O)[C@H](Cc1ccccc1)NC(=O)[C@@H](NC(=O)CNC(=O)[C@H](CCC(=O)O)NC(=O)C(C)(C)NC(=O)[C@@H](N)Cc1ccc(O)cc1)[C@@H](C)O)[C@@H](C)O)[C@@H](C)CC)C(=O)N[C@@H](CC(N)=O)C(=O)N[C@@H](Cc1c[nH]c2ccccc12)C(=O)N[C@@H](CC(C)C)C(=O)N[C@@H](CC(C)C)C(=O)N[C@@H](C)C(=O)NCC(=O)NCC(=O)N1CCC[C@H]1C(=O)N[C@@H](CO)C(=O)N[C@@H](CO)C(=O)NCC(=O)N[C@@H](C)C(=O)N1CCC[C@H]1C(=O)N1CCC[C@H]1C(=O)N1CCC[C@H]1C(=O)N[C@@H](CO)C(=O)O

Columns and labels:
human GLP-1 receptor = human GLP-1 receptor (human, UniProt P43220 24-463); assay: cell-based or functional assay
human GIP receptor = target: T1, human GIP receptor; assay: cell-based or functional assay

Binder | hGLP-1R, CRE Luc 0% HSA EC50 (pM) (human GLP-1 receptor) | hGLP-1R, CRE Luc 1% HSA EC50 (pM) (human GLP-1 receptor) | hGIPR, CRE Luc 0% HSA EC50 (pM) (human GIP receptor) | hGIPR, CRE Luc 1% HSA EC50 (pM) (human GIP receptor)
B1 | 4 | 54.4 | 9 | 71.5
B2 | 2.3 | 82.1 | 6.7 | 191
B3 | 3.3 | 132 | 9.9 | 450
B4 | 7.8 | 1660 | 2.8 | 172
B5 | 3.9 | 940 |  | 1750
B6 | 2.7 | 94.6 | 11.2 | 298

Reference: patent US20230272029A1, “CO-AGONISTS AT GLP-1 AND GIP RECEPTORS SUITABLE FOR ORAL DELIVERY” (Novo Nordisk A/S, priority 2020, published 2023)
